Measured values reported in publication PMC8113726.

Molecular target: Xenopus cyclase-associated protein 1 (XCAP1) (X. laevis (endogenous in oocytes))
Assay: SEC-MALS + AUC; purified native XCAP1-actin complex; SEC-MALS on SRT SEC-300 in PBS pH 7.2, 0.02% NaN3, 20 °C; sedimentation velocity at 40,000 rpm, 20 °C

stoichiometry N: 4
Substance: Xenopus cyclase-associated protein 1 (XCAP1) (natural protein)
